Source: patent US20170355769A1 (AbbVie / Abbott, published 2017)
Substitutions are numbered along the chain they refer to.

B1: huAb3v2.5-AAA (antibody, human IgG1, kappa, L234A L235A, V domains shown)
VH: EVQLVQSGAEVKKPGSSVKVSCKASGYTFSSYWMHWVRQAPGQGLEWIGLIHPESGSTNYNEMFKNRATLTVDRSTSTAYMELSSLRSEDTAVYYCAGGGRLYFDYWGQGTTVTVSS
VL: DIVMTQSPLSLPVTPGEPASISCRSSQSLVHSNRDTYLRWYLQKPGQSPQLLIYKVSNRFSGVPDRFSGSGSGTDFTLKISRVEAEDVGVYYCSQSTHVPYTFGGGTKVEIKR
modifications: synthon AAA on reduced interchain Cys
B2: huAb3v2.5-LB (antibody, human IgG1, kappa, L234A L235A, V domains shown)
VH: B1 VH
VL: B1 VL
modifications: synthon LB on reduced interchain Cys
B3: huAb3v2.6-AAA (antibody, human IgG1, kappa, L234A L235A, V domains shown)
VH: B1 VH
VL: B1 VL with R34Q
modifications: synthon AAA on reduced interchain Cys
B4: huAb3v2.5-SR (antibody, human IgG1, kappa, L234A L235A, V domains shown)
VH: B1 VH
VL: B1 VL
modifications: synthon SR on reduced interchain Cys
B5: huAb3v2.6-YY (antibody, human IgG1, kappa, L234A L235A, V domains shown)
VH: B1 VH
VL: B1 VL with R34Q
modifications: synthon YY on reduced interchain Cys
B6: huAb3v2.5-WD (antibody, human IgG1, kappa, L234A L235A, V domains shown)
VH: B1 VH
VL: B1 VL
modifications: synthon WD on reduced interchain Cys
B7: huAb3v2.6-AAD (antibody, human IgG1, kappa, L234A L235A, V domains shown)
VH: B1 VH
VL: B1 VL with R34Q
modifications: synthon AAD on reduced interchain Cys
B8: huAb3v2.6-YG (antibody, human IgG1, kappa, L234A L235A, V domains shown)
VH: B1 VH
VL: B1 VL with R34Q
modifications: synthon YG on reduced interchain Cys
B9: huAb3v2.5-YG (antibody, human IgG1, kappa, L234A L235A, V domains shown)
VH: B1 VH
VL: B1 VL
modifications: synthon YG on reduced interchain Cys
B10: huAb3v2.5-SE (antibody, human IgG1, kappa, L234A L235A, V domains shown)
VH: B1 VH
VL: B1 VL
modifications: synthon SE on reduced interchain Cys
B11: huAb3v2.6-ZZ (antibody, human IgG1, kappa, L234A L235A, V domains shown)
VH: B1 VH
VL: B1 VL with R34Q
modifications: synthon ZZ on reduced interchain Cys
B12: huAb3v2.6-TX (antibody, human IgG1, kappa, L234A L235A, V domains shown)
VH: B1 VH
VL: B1 VL with R34Q
modifications: synthon TX on reduced interchain Cys
B13: huAb3v2.5-AAD (antibody, human IgG1, kappa, L234A L235A, V domains shown)
VH: B1 VH
VL: B1 VL
modifications: synthon AAD on reduced interchain Cys
B14: huAb3v2.6-SE (antibody, human IgG1, kappa, L234A L235A, V domains shown)
VH: B1 VH
VL: B1 VL with R34Q
modifications: synthon SE on reduced interchain Cys
B15: huAb3v2.5-KZ (antibody, human IgG1, kappa, L234A L235A, V domains shown)
VH: B1 VH
VL: B1 VL
modifications: synthon KZ on reduced interchain Cys
B16: huAb3v2.6-KZ (antibody, human IgG1, kappa, L234A L235A, V domains shown)
VH: B1 VH
VL: B1 VL with R34Q
modifications: synthon KZ on reduced interchain Cys
B17: huAb3v2.6-XW (antibody, human IgG1, kappa, L234A L235A, V domains shown)
VH: B1 VH
VL: B1 VL with R34Q
modifications: synthon XW on reduced interchain Cys
B18: huAb3v2.5-ZZ (antibody, human IgG1, kappa, L234A L235A, V domains shown)
VH: B1 VH
VL: B1 VL
modifications: synthon ZZ on reduced interchain Cys
B19: huAb3v2.6-LB (antibody, human IgG1, kappa, L234A L235A, V domains shown)
VH: B1 VH
VL: B1 VL with R34Q
modifications: synthon LB on reduced interchain Cys
B20: huAb3v2.6-SR (antibody, human IgG1, kappa, L234A L235A, V domains shown)
VH: B1 VH
VL: B1 VL with R34Q
modifications: synthon SR on reduced interchain Cys
B21: huAb3v2.5-XW (antibody, human IgG1, kappa, L234A L235A, V domains shown)
VH: B1 VH
VL: B1 VL
modifications: synthon XW on reduced interchain Cys
B22: huAb3v2.6-WD (antibody, human IgG1, kappa, L234A L235A, V domains shown)
VH: B1 VH
VL: B1 VL with R34Q
modifications: synthon WD on reduced interchain Cys
B23: huAb3v2.6-ZT (antibody, human IgG1, kappa, L234A L235A, V domains shown)
VH: B1 VH
VL: B1 VL with R34Q
modifications: synthon ZT on reduced interchain Cys
B24: huAb3v2.5-ZT (antibody, human IgG1, kappa, L234A L235A, V domains shown)
VH: B1 VH
VL: B1 VL
modifications: synthon ZT on reduced interchain Cys
B25: huAb3v2.6-TV (antibody, human IgG1, kappa, L234A L235A, V domains shown)
VH: B1 VH
VL: B1 VL with R34Q
modifications: synthon TV on reduced interchain Cys
B26: huAb13v1-TX (antibody, human IgG1, kappa, L234A L235A, V domains shown)
VH: EVQLQESGPGLVKPSETLSLTCAVTGYSITSGYSWHWIRQFPGNGLEWMGYIHSSGSTNYNPSLKSRISISRDTSKNQFFLKLSSVTAADTAVYYCAGYDDYFEYWGQGTTVTVSS
VL: DIQMTQSPSSLSASVGDRVTITCKASQNVGFNVAWYQQKPGKSPKALIYSASYRYSGVPSRFSGSGSGTDFTLTISSLQPEDFAEYFCQQYNWYPFTFGQGTKLEIKR
modifications: synthon TX on reduced interchain Cys
B27: huAb13v1-AAD (antibody, human IgG1, kappa, L234A L235A, V domains shown)
VH: B26 VH
VL: B26 VL
modifications: synthon AAD on reduced interchain Cys
B28: huAb13v1-TV (antibody, human IgG1, kappa, L234A L235A, V domains shown)
VH: B26 VH
VL: B26 VL
modifications: synthon TV on reduced interchain Cys
B29: huAb13v1-ZZ (antibody, human IgG1, kappa, L234A L235A, V domains shown)
VH: B26 VH
VL: B26 VL
modifications: synthon ZZ on reduced interchain Cys
B30: huAb13v1-ZT (antibody, human IgG1, kappa, L234A L235A, V domains shown)
VH: B26 VH
VL: B26 VL
modifications: synthon ZT on reduced interchain Cys
B31: huAb13v1-AAA (antibody, human IgG1, kappa, L234A L235A, V domains shown)
VH: B26 VH
VL: B26 VL
modifications: synthon AAA on reduced interchain Cys
B32: huAb13v1-LB (antibody, human IgG1, kappa, L234A L235A, V domains shown)
VH: B26 VH
VL: B26 VL
modifications: synthon LB on reduced interchain Cys
B33: huAb13v1-WD (antibody, human IgG1, kappa, L234A L235A, V domains shown)
VH: B26 VH
VL: B26 VL
modifications: synthon WD on reduced interchain Cys

target: T1, Human full length B7-H3 (human, UniProt Q5ZPR3 29-534); test: cell-based or functional assay
T1 sequence: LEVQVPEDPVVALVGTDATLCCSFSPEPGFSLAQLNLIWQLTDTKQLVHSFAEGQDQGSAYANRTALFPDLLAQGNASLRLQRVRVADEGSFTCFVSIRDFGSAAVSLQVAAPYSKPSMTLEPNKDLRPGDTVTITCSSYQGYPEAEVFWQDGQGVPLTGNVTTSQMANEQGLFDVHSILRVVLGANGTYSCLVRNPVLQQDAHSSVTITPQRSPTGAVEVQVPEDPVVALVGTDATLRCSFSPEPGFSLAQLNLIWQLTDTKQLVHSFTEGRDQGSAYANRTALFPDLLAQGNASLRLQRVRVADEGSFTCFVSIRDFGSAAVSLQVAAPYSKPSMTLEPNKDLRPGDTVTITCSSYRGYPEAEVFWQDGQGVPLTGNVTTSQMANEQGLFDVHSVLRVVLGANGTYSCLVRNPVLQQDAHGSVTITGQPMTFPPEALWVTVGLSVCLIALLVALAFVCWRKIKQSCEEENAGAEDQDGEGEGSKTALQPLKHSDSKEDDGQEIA

Going from B1 to B2, the “EC50 nM H1650 (tumor cell cytotoxicity)” value rises from 0.85 nM to 2.59 nM (3-fold).

Going from B3 to B4, the “EC50 nM H1650 (tumor cell cytotoxicity)” value falls from 1.24 nM to 0.59 nM (2.1-fold).

B5 and B6 are within 1.5-fold of each other in “EC50 nM H1650 (tumor cell cytotoxicity)” value: 0.72 nM for the first, 0.83 nM for the second.

B7 and B8 are within 1.5-fold of each other in “EC50 nM H1650 (tumor cell cytotoxicity)” value: 0.85 nM for the first, 0.68 nM for the second.

B9 and B10 are within 1.5-fold of each other in “EC50 nM H1650 (tumor cell cytotoxicity)” value: 0.71 nM for the first, 0.85 nM for the second.

Going from B11 to B12, the “EC50 nM H1650 (tumor cell cytotoxicity)” value falls from 1.35 nM to 0.47 nM (2.9-fold).

First: B13
Second: B14
The “EC50 nM H1650 (tumor cell cytotoxicity)” value of the first is 2.1-fold lower: 0.49 nM for the first, 1.01 nM for the second.

First: B15
Second: B16
The “EC50 nM H1650 (tumor cell cytotoxicity)” value of the first is 6.3-fold lower: 0.87 nM for the first, 5.52 nM for the second.

Compared with B17, B18 is 2.2-fold lower in “EC50 nM H1650 (tumor cell cytotoxicity)” value: 2.4 nM for the first, 1.1 nM for the second.

Going from B19 to B20, the “EC50 nM H1650 (tumor cell cytotoxicity)” value falls from 2.07 nM to 0.71 nM (2.9-fold).

Compared with B21, B22 is 2.8-fold lower in “EC50 nM H1650 (tumor cell cytotoxicity)” value: 2.18 nM for the first, 0.79 nM for the second.

B23 and B24 are within 1.5-fold of each other in “EC50 nM H1650 (tumor cell cytotoxicity)” value: 1.11 nM for the first, 0.95 nM for the second.

First: B25
Second: B26
The “EC50 nM H1650 (tumor cell cytotoxicity)” value of the first is 2.4-fold higher: 0.52 nM for the first, 0.22 nM for the second.

Going from B27 to B28, the “EC50 nM H1650 (tumor cell cytotoxicity)” value rises from 0.21 nM to 0.43 nM (2-fold).

B29 and B30 are within 1.5-fold of each other in “EC50 nM H1650 (tumor cell cytotoxicity)” value: 0.42 nM for the first, 0.3 nM for the second.

Going from B31 to B32, the “EC50 nM H1650 (tumor cell cytotoxicity)” value rises from 0.37 nM to greater than 133 nM.

For B33, the “EC50 nM H1650 (tumor cell cytotoxicity)” value was 0.45 nM.
